Experimental data as given in patent US20110081354A1 (Bristol-Myers Squibb, published 2011).

T1: CTLA-4-Ig fusion protein comprising the extracellular domain of human CTLA-4 fused to the Fc region of human … (human, UniProt P16410 36-161)
T1 construct: extracellular domain; also called CTLA-4 Hu Ig; soluble human CTLA-4 fusion protein; not shown: Fc region of human immunoglobulin
T1 sequence (looked up): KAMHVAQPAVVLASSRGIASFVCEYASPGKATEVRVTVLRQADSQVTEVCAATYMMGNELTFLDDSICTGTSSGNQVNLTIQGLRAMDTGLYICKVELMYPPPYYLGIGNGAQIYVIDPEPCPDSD

B1: 3A4 human monoclonal antibody (antibody, V domains shown)
VH: QVQVVESGGGVVQPGRSLRLSCAASGFTFSSYGMHWVRQAPGKGLEWVAVIWYDGSNKYYVDSVKGRFTISRDNSKNTLYLQMNSLRAEDTAVYYCARGPGYSSSFDYWGQGTLVTVSS
VL: DIQMTQSPSSLSASVGDRVTITCRASQGISSWLAWYQQKPEKAPKSLIYAASSLQSGVPSRFSGSGSGTDFTLTISSLQPEDFATYYCQQYNSYPLTFGGGTKVEIK
notes: Purified human IgG kappa antibody from a hybridoma (HuMab mouse); also called mAb 3A4
B2: 6C10 human monoclonal antibody (antibody, V domains shown)
VH: QVQLVESGGGVVQPGRSLRLSCTASGFTFSSHGMHWVRQAPGKGLEWVAVVWFDGSNKYYVDSVKGRFTISRDNSKNTLYLQMNSLRAEDTAVYYCARGSGYSSGFDYWGQGTLVTVSS
VL: DIQMTQSPSSLSASVGDRVTITCRASQGISSWLAWYQQKPEKAPKSLIYAASSLQSGVPSRFSGSGSGTDFTLTISSLQPEDFATYYCQQYNSYPLTFGGGTKVEIK
notes: Purified human IgG kappa antibody from a hybridoma (HuMab mouse); also called mAb 6C10

Tests used:
[1] = target: T2, chimeric CTLA-4 protein comprising the extracellular and transmembrane domains of human CTLA-4 linked to the … (human; murine, UniProt P16410 36-187; P24161 52-164, limits assumed); experiment: flow cytometry on cells expressing chimeric human CTLA-4/CD3zeta; PE anti-human IgG detection
T2 construct: domain: extracellular and transmembrane domains;domain: intracellular domain; also called cell surface CTLA4; hCTLA4+ cells

[2] = target: T1, CTLA-4-Ig fusion protein comprising the …; experiment: blocking assay, flow cytometry: inhibition of CTLA-4-Ig binding to mouse B7-1 expressing cells

Row | EC50 [1] | EC50 [2] | Binder
1 | 0.661 nM | 7.41 nM | B1
2 | 0.247 nM | 15.3 nM | B2
